Measurements taken from patent US8088892B2, “Inhibitors of proteins from the Rho-GEF family” (Centre National de la Recherche Scientifique (C.N.R.S.), priority 2002, dated 2012).

Experiments:
TrioDH2 = target: T1, TrioDH2 (Homo sapiens, UniProt O75962); assay: In vitro GEF assay on RhoA; type: biochemical; settings: 20-fold molar excess (8 μM) aptamer, 0.4 μM GST-DH2
T1 construct: TrioDH2 (a.a. 1848-2096); made in house
Method: A 20-fold molar excess (8 μM) of GST-aptamers TRIAPα, TRIAPβ (another TrioGEFD2 binding aptamer), TRIAPγ (another TrioGEFD2 binding aptamer) or the empty thioredoxine (Trx) were pre-incubated with 0.4 μM GST-GEFD2 (left side of FIG. 2A) or 0.4 μM GST-DH2 (right side of FIG. 2A), as indicated, before adding 0.3 μM of [^3H]GDP loaded GST-RhoA. The exchange activity was monitored by the decrease of [^3H]GDP bound-RhoA after 15 min (see Materials and Methods). The amount of [^3H]GDP bound-RhoA incubated without GEF (first bar on the left) was defined as 100% The values and errors bars were calculated from at least three independent experiments.
An in vitro guanine nucleotide exchange (GEF) assay was used to test whether the TrioGEFD2-binding aptamers could inhibit the catalytic activity of TrioGEFD2 towards RhoA. For this purpose, the aptamers TRIAPα, TRIAPβ and TRIAPγ (including the Trx gene) were excised from pEG202 as EcoRI/NotI fragments and cloned into pGEX4T1 EcoRI/NotI. The aptamers were then expressed and purified from bacteria as GST fusion proteins, using standard procedures (Smith and Johnson, 1988). […] The catalytic activity of TrioGEFD2 was thus measured by the decrease of the GTPase-associated radioactivity. The results are expressed as the ratio “exchange after 15 min over exchange after 0 min” (% bound [^3H]GDP-RhoA). […]

TrioGEFD1 = target: T2, TrioGEFD1 (Homo sapiens, UniProt O75962); assay: In vitro GEF assay on RhoG; type: biochemical; design: key to in vitro GEF assay (inhibition): +++^2 and +^2 represent respectively a full and a partial (see FIG. 3) inhibitory effect; +++^2 and +^2 represent respectively a full and a partial (see FIG. 3) inhibitory effect; −−^2 represents a lack of inhibitory effect; settings: for Effect on TrioGEFD1 exchange activity on RhoG: 20-fold molar excess, TrioGEFD1 0.1 μM, RhoG 0.3 μM
T2 construct: TrioGEFD1 (a.a. 1232-1629, 0.1 μM); made in house
Method: To test the specificity of TRIAPα inhibition in vitro, exchange experiments were performed either on RhoA with different RhoA-specific GEFs: Trio GEFD2 (0.4 μM), Kalirin GEFD2 (KalGEFD2, 1.7 μM), p63RhoGEF (Souchet et al., 2002) (0.4 μM) and Lbc (amino acids 172-598; Zheng et al., 1995) (0.4 μM), or on RhoG, with the RhoG-specific GEF domain of Trio (TrioGEFD1, 0.1 μM). Exchange assays were performed with the recombinant GEFs as described in FIG. 2A. Different concentrations of RhoGEFs were used to yield a similar nucleotide exchange efficiency. For each exchange factor, three independent experiments were done in absence (black bar) or in the presence (grey bar) of a 20-fold molar excess of TRIAPα.
An in vitro guanine nucleotide exchange (GEF) assay was used to test whether the TrioGEFD2-binding aptamers could inhibit the catalytic activity of TrioGEFD2 towards RhoA. For this purpose, the aptamers TRIAPα, TRIAPβ and TRIAPγ (including the Trx gene) were excised from pEG202 as EcoRI/NotI fragments and cloned into pGEX4T1 EcoRI/NotI. The aptamers were then expressed and purified from bacteria as GST fusion proteins, using standard procedures (Smith and Johnson, 1988). GTPase-GST fusion proteins were prepared, loaded with [^3H]GDP and the guanine nucleotide release assays were performed as described (Debant et al., 1996), using recombinant GST-TrioGEFD2 (a.a. 1848-2298), TrioDH2 (a.a. 1848-2096). For each point, 0.3 μM GTPase was mixed with or without 0.4 μM GEF in presence of non-labeled GTP, and the reaction mix was filtered after 0 min and 15 mm reaction at 25° C. The catalytic activity of TrioGEFD2 was thus measured by the decrease of the GTPase-associated radioactivity. The results are expressed as the ratio “exchange after 15 min over exchange after 0 min” (% bound [^3H]GDP-RhoA). To measure the effect of the aptamers on the exchange activity, a 20-fold molar excess of GST-TRIAPs was pre-incubated with GEFD2 (or GEFD1) for 30 min on ice before the exchange assay was carried out. For each experiment, data were obtained in triplicate. […]

B1: TRIAPα: aptamer of 154 amino acids: variable region of 42 amino acids inserted into the thioredoxin protein; tested as GST fusion (protein)
chain: MSDKIIHLTDDSFDTDVLKADGAILVDFWAEWCGPAREGADGAICGYNLATLVMLGPSERVFCPLCEPCSSDIYELMGPCKMIAPILDEIADEYQGKLTVAKLNIDQNPGTAPKYGIRGIPTLLLFKNGEVASATKVGALSKGQLKEFLDANLA
For B1, the “Inhibition of TrioDH2 exchange activity on RhoA in vitro” value (TrioDH2) was “inhibits”, the “Inhibition of TrioDH2 exchange activity on RhoA in vitro” value (TrioDH2; listed as GST-TRIAPα) was “inhibited both TrioGEFD2 and TrioDH2 exchange activities” and the “Effect on TrioGEFD1 exchange activity on RhoG” value (TrioGEFD1) was “has no effect”. For the same molecule, the “Effect on TrioGEFD1 exchange activity on RhoG” value (TrioGEFD1; listed as GST-TRIAPα) was “did not block” and the “in vitro GEF assay (inhibition)” value (TrioGEFD1; RhoGEF TrioDH1PH1) was “−−^2”.
